Where no end group is shown, it is not given here.
Molecular target: T1, Hdm2 210-304 (Homo sapiens, UniProt Q00987)
T1 construct: poly-His (thrombin-cleavable, from pET28a) (cleaved yes); made in house; host or cells: E. coli BL21 (DE3)
Experiment: SPR binding of Arf library peptides to immobilized His-tagged Hdm2 210-304
Conditions: 15 amino acid library peptides, binding for 10 minutes
Method: Binding studies were performed using a Biacore 3000 surface plasmon resonance (SPR) instrument (Biacore, Inc.). A Tetra-His™ Antibody (Qiagen, Inc.; Cat. #34670) was covalently attached to a carboxymethylated gold surface (C-1 chip; Biacore, Inc.). The carboxymethyl groups on the surface were activated with N-ethyl-N′-(3-dimethylaminopropyl) carbodiimide (EDC) and N-hydroxysuccinimide (NHS) and the antibody was attached at pH 7.4 in 20 mM sodium phosphate buffer, 150 mM NaCl (PBS). Reactive sites remaining on the surface were blocked by reaction with ethanolamine. […] Binding was measured by flowing the non-His-tagged analyte through the reference and ligand-containing flow cells in sequence. […] Changes in the SPR response due to solvent differences and the injection process were monitored by injection of HBS-N buffer alone. […]
Two libraries of peptides 15 amino acids in length were synthesized based on the sequence of exon 1β of mouse p19^Arf and the entire sequence of human p14^Arf. […] The ability of these peptides to bind Hdm2 fragments was determined using the surface plasmon resonance (SPR) technique with a Biacore 3000 instrument. […] Relative binding affinity was judged on the basis of the maximal SPR signal detected after binding for 10 minutes.

T1 sequence (Q00987 210-304): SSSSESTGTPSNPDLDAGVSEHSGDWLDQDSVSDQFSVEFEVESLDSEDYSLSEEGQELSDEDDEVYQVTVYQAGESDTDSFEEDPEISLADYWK

Row | Substance | binding to Hdm2 210-304 (maximal SPR signal)
1 | human Arf residues 86-100: 15 amino acid human p14^Arf library peptide spanning residues 86-100, contains the NoLS RRPR (LRRPRHSHPTRARRC; not fully specified (N-terminus, C-terminus); UniProt Q8N726 86-100, looked up, fragment) | binds
2 | mouse p19^Arf residues 31-45: 15 amino acid mouse p19^Arf library peptide spanning residues 31-45, contains the RRPR motif (RRPRTASCALAFVNM; UniProt Q64364 31-45, looked up, fragment) | bind

Reference: US20020045192A1, “Arf and HDM2 interaction domains and methods of use thereof” (St. Jude Children's Research Hospital, priority 2001, published 2002)
